Key:
[1] = substrate: N[C@@H](CC(=O)O)C(=O)O; test: Michaelis-Menten kinetics of the purified enzyme (Km); assay type: biochemical, Helicobacter pylori; details: Mg2+
[2] = substrate: Nc1nc2c(ncn2[C@@H]2O[C@H](COP(=O)(O)OP(=O)(O)OP(=O)(O)O)[C@@H](O)[C@H]2O)c(=O)[nH]1; test: as above; assay type: biochemical, Helicobacter pylori; details: Mg2+

B1: adenylosuccinate synthetase (AdSS) (Helicobacter pylori 26695) (protein)
chain: MADVVVGIQWGDEGKGKIVDRIAKDYDFVVRYQGGHNAGHTIVHKGVKHSLHLMPSGVLYPKCKNIISSAVVVSVKDLCEEISAFEDLENRLFVSDRAHVILPYHAKKDAFKEKSQNIGTTKKGIGPCYEDKMARSGIRMGDLLDDKILEEKLNAHFKAIEPFKKAYDLGENYEKDLMGYFKTYAPKICPFIKDTTSMLIEANQKGEKILLEGAQGTLLDIDLGTYPFVTSSNTTSASACVSTGLNPKAINEVIGITKAYSTRVGNGPFPSEDTTPMGDHLRTKGAEFGTTTKRPRRCGWLDLVALKYACALNGCTQLALMKLDVLDGIDAIKVCVAYERKGERLEIFPSDLKDCVPIYQTFKGWEKSVGVRKLDDLEPNVREYIRFIEKEVGVKIRLISTSPEREDTIFL
notes: recombinant protein expressed from pET21b-HPpurA
Protein B1 has a Km [1] of 125.4 ± 7.7 µM, a Vmax [1] of 1.1 µmol/min/mg and a Km [2] of 8.7 ± 0.6 µM. The Vmax [2] was 1.42 µmol/min/mg.
